Assay results as given in publication PMC12827253 (2025).

Legend:
human recombinant RIPK3 [1] = target: T1, human recombinant RIPK3 (human, UniProt Q9Y572 1-518); assay: BLI; average
human recombinant RIPK3 [2] = target: T1, human recombinant RIPK3; assay: BLI; fit at 3 nM GADD45β
human recombinant RIPK3 [3] = target: T1, human recombinant RIPK3; assay: BLI; fit at 6 nM GADD45β
human recombinant RIPK3 [4] = target: T1, human recombinant RIPK3; assay: BLI; fit at 12 nM GADD45β
human recombinant RIPK3 [5] = target: T1, human recombinant RIPK3; assay: BLI; fit at 25 nM GADD45β
human recombinant RIPK3 [6] = target: T1, human recombinant RIPK3; assay: BLI; fit at 50 nM GADD45β
human recombinant RIPK3 [7] = target: T1, human recombinant RIPK3; assay: BLI; fit at 100 nM GADD45β

T1 sequence (Q9Y572 whole entry): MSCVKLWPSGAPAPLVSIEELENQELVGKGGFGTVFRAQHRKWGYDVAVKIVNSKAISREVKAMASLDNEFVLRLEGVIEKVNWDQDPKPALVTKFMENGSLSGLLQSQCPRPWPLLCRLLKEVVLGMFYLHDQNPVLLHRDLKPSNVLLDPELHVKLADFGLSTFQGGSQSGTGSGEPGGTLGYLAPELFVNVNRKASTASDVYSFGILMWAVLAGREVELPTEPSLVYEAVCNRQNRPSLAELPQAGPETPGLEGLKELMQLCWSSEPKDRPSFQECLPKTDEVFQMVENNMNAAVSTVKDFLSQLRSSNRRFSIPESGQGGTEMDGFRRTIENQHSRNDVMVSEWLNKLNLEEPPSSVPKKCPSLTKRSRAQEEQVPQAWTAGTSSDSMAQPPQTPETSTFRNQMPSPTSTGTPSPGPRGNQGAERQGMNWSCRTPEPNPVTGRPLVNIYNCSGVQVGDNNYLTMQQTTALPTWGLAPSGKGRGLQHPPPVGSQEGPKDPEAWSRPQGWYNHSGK

B1: recombinant human GADD45β (natural protein)
chain: MTLEELVACDNAAQKMQTVTAAVEELLVAAQRQDRLTVGVYESAKLMNVDPDSVVLCLLAIDEEEEDDIALQIHFTLIQSFCCDNDINIVRVSGMQRLAQLLGEPAETQGTTEARDLHCLLVTNPHTDAWKSHGLVEVASYCEESRGNNQWVPYISLQER
- koff (human recombinant RIPK3 [1]): 0.000546 s⁻¹
- Kd (human recombinant RIPK3 [2]): 0.111 nM
- Kd (human recombinant RIPK3 [3]): 0.61 nM
- Kd (human recombinant RIPK3 [4]): 1.36 nM
- Kd (human recombinant RIPK3 [5]): 1.96 nM
- Kd (human recombinant RIPK3 [6]): 2.85 nM
- Kd (human recombinant RIPK3 [7]): 3.49 nM
